Results from PMC3936261.
Read-outs that look alike come from different tables or passages of the source.

Experiments:
Assay in all cases: other fluorescence titration
[1] = target: Prdx1 protein labeled with Alexa Fluor 546 (UniProt Q06830)
[2] = target: Prdx1 protein labeled with Alexa Fluor 546 (UniProt Q06830); remark: listed apart in the source
[3] = target: Prdx1 protein labeled with Alexa Fluor 546 (UniProt Q06830); remark: listed apart in the source

Prdx1 protein labeled with Alexa Fluor 546, sequence (Q06830 whole entry): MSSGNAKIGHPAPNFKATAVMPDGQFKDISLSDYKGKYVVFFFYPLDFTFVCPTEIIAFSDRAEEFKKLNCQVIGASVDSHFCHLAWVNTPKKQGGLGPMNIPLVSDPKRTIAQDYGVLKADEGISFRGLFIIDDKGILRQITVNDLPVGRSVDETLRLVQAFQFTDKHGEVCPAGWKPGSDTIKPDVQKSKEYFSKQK

## MKP-1 protein labeled with QSY 35 (from UniProt P28562 1-367) (enzyme)
[1]
  Kd: 215 nM
[2]
  Kd: 210 nM
[3]
  Kd: 261 nM
